Here are results for one molecule from PMC8052441, “Structural insight into the molecular mechanism of p53-mediated mitochondrial apoptosis” (Nature Communications, 2021).

The target of experiment [1] is T1, p53-DBD (human p53 DNA-binding domain, amino acids 92-292) (human, UniProt P04637 92-292).
T1 construct: Cloned into pMAL-c5x; In the crystal (PDB 6LHD) this stretch stood fused to BCL-xL; the rows of the structure use m1 and m3 for the two halves; also called p53-A; p53-B; source: E. coli BL21 (DE3), purified (amylose, PreScission, Mono S)
T1 sequence (P04637 92-292): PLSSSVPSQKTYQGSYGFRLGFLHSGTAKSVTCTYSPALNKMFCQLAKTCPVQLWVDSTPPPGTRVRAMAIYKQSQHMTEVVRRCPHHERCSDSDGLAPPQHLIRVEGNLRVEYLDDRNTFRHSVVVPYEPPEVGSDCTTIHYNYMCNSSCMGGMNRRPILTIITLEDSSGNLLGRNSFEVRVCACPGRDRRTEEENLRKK
Kind of experiment: ITC; p53 protein (100 µM) titrated into 10–30 µM BCL-xL or BCL-2; 25 °C; 50 mM Tris pH 7.0, 40 mM NaCl, 1 mM TCEP. The settings on record: both partners purified.

For experiment [2], the target named is T2, p53-DT (human p53 DBD and tetramerization domain, amino acids 92-360) (human, UniProt P04637 92-360).
T2 construct: human p53, DBD and tetramerization domain, amino acids 92-360; Tetramer in solution by gel filtration and cross-linking; also called wild-type p53-DT; not shown: His6, N-terminal, cleaved
T2 sequence (P04637 92-360): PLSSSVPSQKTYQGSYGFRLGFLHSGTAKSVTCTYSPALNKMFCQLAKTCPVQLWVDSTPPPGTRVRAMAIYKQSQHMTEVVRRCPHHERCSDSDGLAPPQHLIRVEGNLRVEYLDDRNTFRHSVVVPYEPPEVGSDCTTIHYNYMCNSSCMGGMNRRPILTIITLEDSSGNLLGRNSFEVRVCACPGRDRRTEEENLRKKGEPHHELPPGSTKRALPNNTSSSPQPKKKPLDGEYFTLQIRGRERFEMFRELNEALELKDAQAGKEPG
Described as above. The settings on record: both partners purified.

B1: BCL-xL (human, lacking the α1-α2 loop 45-84 and the 22 C-terminal residues), His-tagged (domain or fragment, UniProt Q07817-1 1-211, looked up)
chain: MSQSNRELVVDFLSYKLSQKGYSWSQFSDVEENRTEAPEGTESEAVKQALREAGDEFELRYRRAFSDLTSQLHITPGTAYQSFEQVVNELFRDGVNWGRIVAFFSFGGALCVESVDKEMQVLVSRIAAWMATYLNDHLEPWIQENGGWDTFVELYGNNAAAESRKGQERFN
notes: human BCL-xL lacking the disordered α1-α2 loop (amino acids 45-84) and the 22 C-terminal residues (transmembrane region); Cloned into pET-28a; also called BCL-xL-C; BCL-xL-D
Turning to B1, the Kd (usually the free concentration of one partner at which half of the binding sites on the other are occupied at equilibrium, for simple one-to-one binding) is 37.4 µM in experiment [1] and 4.1 µM in experiment [2].
